Experiment [1] deals with hTNF-R2 on Raji cells or PC60-hTNFR2 cells (human) (UniProt P20333). The experiment in a line: cell-based or functional assay.
Experiment [2] deals with T1, soluble hTNF-R1 (Peprotech) (human, UniProt P19438 30-211).
T1 construct: extracellular domain; also called p55
T1 sequence (looked up): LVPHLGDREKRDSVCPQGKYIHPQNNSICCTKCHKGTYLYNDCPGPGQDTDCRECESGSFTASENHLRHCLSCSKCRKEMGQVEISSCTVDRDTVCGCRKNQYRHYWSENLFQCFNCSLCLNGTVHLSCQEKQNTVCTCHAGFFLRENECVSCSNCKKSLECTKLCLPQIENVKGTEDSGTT
The experiment can be described thus: BLI (Octet RED96), His-tagged TNF on HIS1K biosensor, soluble receptor in solution, 1:1 global fit. The method, then:
(§1) KD values were calculated using global fitting with a 1:1 model (R²≥0.95).
For orientation: In BLI a coated tip is dipped into the sample, and binding shifts an interference pattern.

For experiment [3], the target named is T2, soluble hTNF-R2 (Peprotech) (human, UniProt P20333 23-257).
T2 construct: extracellular domain; also called p75
T2 sequence (looked up): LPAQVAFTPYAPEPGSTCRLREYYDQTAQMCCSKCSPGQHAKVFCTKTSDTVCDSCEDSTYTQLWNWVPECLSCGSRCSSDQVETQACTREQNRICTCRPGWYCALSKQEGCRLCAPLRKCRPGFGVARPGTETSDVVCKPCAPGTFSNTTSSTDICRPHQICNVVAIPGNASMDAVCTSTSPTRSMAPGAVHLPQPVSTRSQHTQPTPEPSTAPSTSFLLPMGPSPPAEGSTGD
Described as above. On the procedure: as §1

For experiment [4], the target named is T1, soluble hTNF-R1 (Peprotech). The experiment in a line: BLI (Octet RED96), affinity relative to WT hTNF. The method, then: as §1

What is called Kd is a measure of binding affinity in units of concentration. A higher Kd goes with weaker binding.

In turn, “BclI10 Nanobody (control) - 20xGGS - hTNF Y87H/A145R - 6xHis AcTakine” yielded an OPRM1 mRNA expression in Raji cells (qPCR), against unstimulated cells in experiment [1] of 5 fold.

B1: hTNF mutant A145T E146D S147D (N-terminal 6xHis tag) (ligand)
chain: HHHHHHVRSSSRTPSDKPVAHVVANPQAEGQLQWLNRRANALLANGVELRDNQLVVPSEGLYLIYSQVLFKGQGCPSTHVLLTHTISRIAVSYQTKVNLLSAIKSPCQRETPEGAEAKPWYEPIYLGGVFQLEKGDRLSAEINRPDYLDFTDDGQVYFGIIAL
Consider B1, for which the Kd in experiment [2] turned out to be 5100 nM; in experiment [3], 4.78 nM. Moreover, in experiment [4], the “% WT R1” value turned out to be 0.35%.
